# Reference: patent publication US20250018014A1, “METHOD FOR TREATING AND/OR PREVENTING REGNASE-1-RELATED DISEASE” (OSAKA UNIVERSITY, priority 2018, published 2025)
# “Also recorded” adds a separate entry of the source.
# B1: REA0023: anti-Regnase-1 antibody; heavy chain SEQ ID NO: 20, light chain SEQ ID NO: 21 (antibody)
# heavy: QSLEESGGDLVKPGASLTLTCTDAGFSFSGVYWMHWVRQAPGKGLEWIACINAGSSGSTYYASWAKGRFTISKPSSTTVTLQMTSLTVADTATYFCARSFTLWGPGTLVTVSSGQPKAPSVFPLAPCCGDTPSSTVTLGCLVKGYLPEPVTVTWNSGTLTNGVRTFPSVRQSSGLYSLSSVVSVTSSSQPVTCNVAHPATNTKVDKTVAPSTCSKPTCPPPELLGGPSVFIFPPKPKDTLMISRTPEVTCVVVDVSQDDPEVQFTWYINNEQVRTARPPLREQQFNSTIRVVSTLPITHQDWLRGKEFKCKVHNKALPAPIEKTISKARGQPLEPKVYTMGPPREELSSRSVSLTCMINGFYPSDISVEWEKNGKAEDNYKTTPAVLDSDGSYFLYNKLSVPTSEWQRGDVFTCSVMHEALHNHYTQKSISRSPGK
# light: AVVTQTPSSVSAAVGGTVTIKCQSSQSVGNNNYLAWFQQKPGQPPKLLIYSASTLASGVPSRFSGSGSGTQFTLTISGVQCDDAATYYCLGGYDGDGEAFYVFGGGTEVVVKGDPVAPTVLIFPPAADQVATGTVTIVCVANKYFPDVTVTWEVDGTTQTTGIENSKTPQNSADCTYNLSSTLTLTSTQYNSHKEYTCKVTQGTTSVVQSFNRGDC
# B2: REA0027: anti-Regnase-1 antibody; heavy chain SEQ ID NO: 22, light chain SEQ ID NO: 23 (antibody)
# heavy: QSLEESGGDLVKPGASLTLTCTASGFGFSSSYWMHWVRQAPGKGLEWIACINAGSSTKTYYASWAKGRFTISKPSSTTVTLQMTSLTVADTATYFCAWSFNLWGPGTLVTVSSGQPKAPSVFPLAPCCGDTPSSTVTLGCLVKGYLPEPVTVTWNSGTLTNGVRTFPSVRQSSGLYSLSSVVSVTSSSQPVTCNVAHPATNTKVDKTVAPSTCSKPTCPPPELLGGPSVFIFPPKPKDTLMISRTPEVTCVVVDVSQDDPEVQFTWYINNEQVRTARPPLREQQFNSTIRVVSTLPITHQDWLRGKEFKCKVHNKALPAPIEKTISKARGQPLEPKVYTMGPPREELSSRSVSLTCMINGFYPSDISVEWEKNGKAEDNYKTTPAVLDSDGSYFLYNKLSVPTSEWQRGDVFTCSVMHEALHNHYTQKSISRSPGK
# light: AVVTQTPSSVSAAVGGTVTIKCQSSQSVGNNNWLAWFQQKPGQPPKLLIYSASTLASGVPSRFSGSGSGTQFTLTISGVQCDDAATYYCLGGYDGDGEAFYVFGGGTEVVVKGDPVAPTVLIFPPAADQVATGTVTIVCVANKYFPDVTVTWEVDGTTQTTGIENSKTPQNSADCTYNLSSTLTLTSTQYNSHKEYTCKVTQGTTSVVQSFNRGDC
# How the values were obtained:
# [1] = tested on: appearance of non-phosphorylated Regnase-1 in MEF; test: Immunoblot analysis of Regnase-1 in MEFs during the recovery phase after IL-17A stimulation; type: cell-based, mouse; settings: after IL-17A (50 ng/ml) one hour; cycloheximide and okadaic acid (0.5 μM)
# Method: Total mRNA was prepared from cells treated with doxycycline for 0 to 4 hours, and then subjected to Northern blotting using [^32P] labelled probes. […] Cells were treated with IL-17A (50 ng/ml) for one hour, and subsequently incubated in a medium with no additives (control), a medium containing cycloheximide (100 μM), or a medium containing both cycloheximide and okadaic acid (0.5 μM) for 0 to 240 minutes. […] The qPCR data (A, B, and E) were collected from four independent experiments. The error bars represent mean±SEM. ***P<0.005.
# Next, the present inventors investigated the mechanism of target mRNA suppression in Regnase-1AA/AA cells. As described above, suppression of target mRNA is more enhanced at later stages of IL-17A stimulation. The present inventors used immunoblot analysis of phosphorylated and non-phosphorylated Regnase-1 during the recovery phase after the completion of IL-17A stimulation. […] The increase in the amount of non-phosphorylated Regnase-1 protein was enhanced much more strongly in Regnase-1AA/AA MEF than in wild type cells.
# [2] = tested on: IL-6 mRNA stability in Regnase-1AA/AA MEF; test: qPCR analysis of IL-6 mRNA levels in Regnase-1AA/AA MEFs after TNF-α and IL-17A, with ActD; type: cell-based, mouse; settings: ActD and okadaic acid (0.5 μM)
# [3] = tested on: Regnase-1 phosphorylation upon IL-17A stimulation in MEF; test: Immunoblot analysis of Regnase-1 in wild-type MEFs stimulated with IL-17 in the presence of BX795; type: cell-based, mouse; settings: BX795 (50 μM)
# Text: The two arrows indicate the phosphorylated form (upper) and unphosphorylated form (lower) of Regnase-1.
# To identify the kinase responsible for Regnase-1 phosphorylation in the IL-17A signaling pathway, the inventors investigated a series of MEFs lacking TBK1, IKKi, TBK1/IKKi, Act1, IKKa/IKKβ, or IRAK1/IRAK2. […] To investigate whether TBK1 and IKKi directly phosphorylate Regnase-1, the present inventors prepared recombinant Regnase-1 purified from a MEF cell line stably expressing FLAG-tagged Regnase-1. Phosphorylation of recombinant Regnase-1 by recombinant TBK1 and/or IKKi under in vitro conditions was detected as an electrophoretic mobility shift pattern by immunoblotting and ^32P autoradiography (FIG. 12-2D). […] The phosphorylation pattern of Regnase-1 by IRAK appeared to be similar to that by TBK1 and IKKi, but Regnase-1 phosphorylation occurred in IRAK1/IRAK2 double-deficient MEF (FIG. 12-2E). In contrast, Regnase-1 phosphorylation in response to IL-1β occurred in TBK1/IKKi double-deficient MEF (FIG. 12-3J).
# [4] = biological target: T1, Peptide 1 ([…]), partial peptide of human Regnase-1 (Homo sapiens, UniProt Q5D1E8); test: Binding of anti-non-phosphorylated Regnase-1 peptide antibodies to bead-bound Peptide 1 (iQue screener); settings: streptavidin-immobilized beads; histograms FIG. 32
# T1 construct: […], biotin-conjugated peptide; made in house; host or cells: chemical synthesis
# Method: (§1) • Biotin-Conjugated FL_Reg1, Biotin-Conjugated Peptide • […], biotin-conjugated peptide • AFPPREYWSEPYPLPPPTC-NH2, and biotinylated BSA (Sigma, A8549) were each bound to streptavidin-immobilized beads.
# (§2) These beads were mixed with each anti-Regnase-1 antibody, and they were allowed to react. Thereafter, Anti-Rabbit IgG1 Alexa488 (molecular probes, A21244) was mixed and reacted, and analysis was performed with iQue screener PLUS (intellicyt). Data was analyzed with FlowJo ver10.
# [5] = biological target: T2, FL_Reg1 (human full-length Regnase-1) (Homo sapiens, UniProt Q5D1E8); test: Binding of anti-non-phosphorylated Regnase-1 peptide antibodies to bead-bound full length human Regnase-1 (iQue screener); settings: streptavidin-immobilized beads; histograms FIG. 32
# T2 construct: made in house; host or cells: Expi293 cells
# T2 sequence (Q5D1E8 1-599): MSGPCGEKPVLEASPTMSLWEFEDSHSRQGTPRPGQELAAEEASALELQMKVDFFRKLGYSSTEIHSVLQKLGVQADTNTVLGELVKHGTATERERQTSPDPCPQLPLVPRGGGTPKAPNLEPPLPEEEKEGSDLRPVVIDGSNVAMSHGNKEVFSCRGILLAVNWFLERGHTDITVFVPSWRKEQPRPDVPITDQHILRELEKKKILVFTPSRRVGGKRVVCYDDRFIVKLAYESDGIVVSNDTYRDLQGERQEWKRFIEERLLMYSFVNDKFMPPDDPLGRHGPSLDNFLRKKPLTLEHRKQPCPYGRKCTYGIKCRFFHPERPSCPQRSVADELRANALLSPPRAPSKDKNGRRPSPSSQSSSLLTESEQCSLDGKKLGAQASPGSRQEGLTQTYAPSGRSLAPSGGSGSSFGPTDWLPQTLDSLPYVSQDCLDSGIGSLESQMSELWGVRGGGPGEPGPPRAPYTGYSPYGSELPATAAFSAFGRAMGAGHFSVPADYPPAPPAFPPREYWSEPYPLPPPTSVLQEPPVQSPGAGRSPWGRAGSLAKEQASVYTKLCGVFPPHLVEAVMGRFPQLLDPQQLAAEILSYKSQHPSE
# Method: as §1, §2
# [6] = biological target: T3, Regnase-1 phosphorylation by IKKβ (Homo sapiens, UniProt Q5D1E8); test: Inhibitory activity of anti-Regnase-1 antibodies against Regnase-1 phosphorylation by IKKβ (Phos-tag gel, western blotting); type: biochemical; settings: antibody at final concentrations of 16.7 μg/mL and 5.0 μg/mL; relative to Control group
# T3 construct: GST (N, cleaved yes); made in house; host or cells: Expi293 cells
# T3 sequence (Q5D1E8 1-599): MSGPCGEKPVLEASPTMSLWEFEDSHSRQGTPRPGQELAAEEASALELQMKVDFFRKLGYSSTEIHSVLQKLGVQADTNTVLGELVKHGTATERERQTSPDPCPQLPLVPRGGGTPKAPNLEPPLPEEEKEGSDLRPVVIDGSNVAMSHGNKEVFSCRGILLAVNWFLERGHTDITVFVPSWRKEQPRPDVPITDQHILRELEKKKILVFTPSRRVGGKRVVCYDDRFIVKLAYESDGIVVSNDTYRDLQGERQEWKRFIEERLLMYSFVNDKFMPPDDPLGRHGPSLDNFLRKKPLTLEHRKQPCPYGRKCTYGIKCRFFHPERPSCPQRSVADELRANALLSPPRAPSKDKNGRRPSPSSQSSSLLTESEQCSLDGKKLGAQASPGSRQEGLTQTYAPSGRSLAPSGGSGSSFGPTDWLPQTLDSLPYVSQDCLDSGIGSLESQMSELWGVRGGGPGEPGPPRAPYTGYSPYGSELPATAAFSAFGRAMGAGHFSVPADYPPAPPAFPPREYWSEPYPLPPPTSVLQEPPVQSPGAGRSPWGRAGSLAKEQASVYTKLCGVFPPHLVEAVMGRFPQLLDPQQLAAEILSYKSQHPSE
# Method: To a solution (ATP buffer) containing Kinase Assay Buffer III (manufactured by SignalChem) supplemented with 2 mM DTT, 100 μM sodium vanadate, 2 mM manganese chloride, and 15 μM ATP, dephosphorylated Regnase-1 was mixed at 150 nM. Four microliters of this solution and 4 μL of HEPES Buffered Saline containing 50 μg/mL or 15 μg/mL of anti-Regnase-1 antibody were mixed, and this was allowed to react for one hour. This reaction solution was mixed with 4 μL of ATP buffer containing 150 nM of each kinase (IKKβ or TBK1), and further reacted for one hour. After the reaction, 4 μL of 4× Laemmli Sample buffer (manufactured by Bio-Rad) was added and this mixture was incubated at 95° C. for five minutes for protein denaturation treatment. This sample was ice-cooled for three minutes, and 10 μL of it was added to SuperSep Phos-tag 7.5% 17 wells (manufactured by Wako) placed in EasySeparator (manufactured by Wako). […] Chemiluminescence was detected using ImageQuant LAS4000 mini (manufactured by GE Healthcare).
# A band for phosphorylated Regnase-1 was detected due to treatment with each kinase (FIG. 33A). Band densities were measured with Image Quant-TL (manufactured by GE Healthcare). The relative value for the band density of the sample to which each compound was added was calculated, considering the band density of the kinase-added sample of the Control group, to which no compound was added, as 1. […]
Molecule,appearance of non-phosphorylated Regnase-1 during the recovery phase [1],IL-6 mRNA stability / half-life [2],Regnase-1 phosphorylation upon IL-17A stimulation [3],binding to Peptide 1 compared with biotinylated BSA [4],binding to FL_Reg1 compared with biotinylated BSA [5],density of the phosphorylated Regnase-1 band in IKKβ treatment [6]
C=C1[C@@H](O)[C@@H]2O[C@]3(CC[C@H](/C=C/[C@@H](C)[C@@H]4CC(C)=C[C@@]5(O[C@H](C[C@@](C)(O)C(=O)O)CC[C@H]5O)O4)O3)CC[C@H]2O[C@@H]1[C@@H](O)C[C@H](C)[C@H]1O[C@@]2(CCCCO2)CC[C@H]1C [okadaic acid],non-phosphorylated Regnase-1 did not appear,IL-6 mRNA stability was also enhanced; also recorded: dramatic increase in the half-life of IL-6 mRNA,,,,
O=C(NCCCNc1nc(Nc2cccc(NC(=O)N3CCCC3)c2)ncc1I)c1cccs1 [BX795],,,inhibited Regnase-1 phosphorylation,,,
B1,,,,bound more strongly,bound more strongly,decreased
B2,,,,bound more strongly,bound more strongly,decreased
